Molecular target: T1, Ca2+-calmodulin (of the unpublished KD) ( (rat cDNA cloned), UniProt P0DP29 1-149)
T1 construct: also called Ca2+-CaM
Assay: not stated; unpublished ('A.A. in preparation'); affinity of the Kv7 CaM-binding site for Ca2+-CaM

Kd [nM]	Binder
~25	Kv7.3 CaM-binding site (construct of the unpublished KD not stated) (domain or fragment) not shown
~25	Kv7.2 CaM-binding site (construct of the unpublished KD not stated) (domain or fragment, the construct may be that of m1) not shown
